For the assay, the target named is T1, human HVEM Fc (human, UniProt Q92956 39-202).
T1 construct: also called wild-type HVEM-Fc; not shown: human IgG1 Fc
T1 sequence: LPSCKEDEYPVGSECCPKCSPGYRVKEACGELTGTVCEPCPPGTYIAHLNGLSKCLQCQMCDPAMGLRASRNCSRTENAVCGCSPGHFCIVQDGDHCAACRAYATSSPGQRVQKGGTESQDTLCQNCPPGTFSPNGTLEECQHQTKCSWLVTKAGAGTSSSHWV
Kind of assay: flow cytometry on EL4 cells expressing human CD160. On the technique in general: A flow cytometer gives signals particle by particle.

B1: human CD160 on cells (receptor)
chain: GCINITSSASQEGTRLNLICTVWHKKEEAEGFVVFLCKDRSGDCSPETSLKQLRLKRDPGIDGVGEISSQLMFTISQVTPLHSGTYQCCARSQKSGIRLQGHFFSILFTETGNYTVTGLKQRQHLEFSHNEGTLS
notes: whole, on cells; Transduced into EL4 or 293T cells; endogenous on NK92 and blood NK cells in the functional rows
Take B1: the binding result was “binds”.

Values taken from US20210122788A1 (SANFORD BURNHAM PREBYS MEDICAL DISCOVERY INSTITUTE, published 2021).
